The results in this text go back to the nanobody polyreactivity screen of Harvey et al. (2022).

This data set can be described thus: yeast display, Sf9 membrane polyspecificity reagent, FACS + sequencing; frameworks hold sequencing errors. The method, boiled down: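 Genes from sorted yeast were amplified by colony PCR, read by MiSeq 2 × 250 sequencing and filtered on CDR length. These cells carried a synthetic nanobody library in Saccharomyces cerevisiae BJ5465 and were sorted by FACS into low and high (top ~1%) gates on anti-HA and streptavidin fluorescence. Polyreactivity is labelled according to the gate of origin.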
Regarding “QVQLVESGGGLVQAGGSLRLSCAASGSIFEGYVMGWYRQAPGKERELVATISFSGGSTYYADSVKGRFTISRDNAKNTVYLQMNSLKPEDTAVYYCNALVYHTKGDYGYWGQGTQVTVSS”, the “polyreactivity (PSR sort gate)” value was “low polyreactivity”. As to “QVQLVESGGGLVQAGGSLRLSCAASGSIFEGYVMGWYRQEPGKERELVATISFSGGSTYYADSVKGRFTISRDNAKTTVYLQMNSLKPEDTAVYYCNALVYHTKGDYGYWGQGTQVTVSS”, the “polyreactivity (PSR sort gate)” value is “low polyreactivity”. Turning to “QVQLVESGGGLVQAGGSLRLSCAASGSIFEINAKGWYRQAPGKERELVADIRRGDSTNYADSVKGRFTISRDNAKNTVYLQMNSLKPEDTAVYYCAAYHRLFDYDYWGQGTQVTVSS”, the “polyreactivity (PSR sort gate)” value was “high polyreactivity”. Regarding “QVQLVESGGGLVQAGGSLRLSCAASGSIFEIYAMGWYRQAPGKERELVASITWSGGSTYYADSVKGRFTISRDNAKNTVYLQMNSLKPEDTAVYYCATDKLYGRTVRMDYWGQGTQVTVSS”, the “polyreactivity (PSR sort gate)” value is on record as “low polyreactivity”. With “QVQLVESGGGLVQAGGSLRLSCAASGSIFEIYAMGWYRQAPGKERQLVASITWSGGSTYYADSVKGRFTISRDNAKNTVYLQMNSLKPEDTAVYYCATDKLYGRTVRMDYWGQGTQVTVSS”, the “polyreactivity (PSR sort gate)” value is on record as “low polyreactivity”. The result for “QVQLVESGGGLVQAGGSLRLSCAASGSIFENYAMGWYRQAPGKERELVAAISSSGDSTYYADSVKGRFTISRDNAKNTVYLQMNSLKPEDTAVYYCAAEISLSRSDRIESYDYWGQGTQVTVSS” reads “low polyreactivity”. For the sequence “QVQLVESGGGLVQAGGSLRLSCAASGSIFEPNAMGWYRQAPGKEREFVAAISGSGGSTYYADSVKGRFTISRDNAKNTVYLQMNSLKPEDTAVYYCATRGKRSYFRTFYYWGQGTQVTVSS”, the “polyreactivity (PSR sort gate)” value is listed as “high polyreactivity”. Take “QVQLVESGGGLVQAGGSLRLSCAASGSIFEPNAMGWYRQAPGTERELVAAISWNDGDTYYADSVKGRFTISRDNAKNTVYFQMNSLKPEDPAVYYCAAAISLYSYDYWGQGTQVTVSS”: the “polyreactivity (PSR sort gate)” value is “low polyreactivity”. On to “QVQLVESGGGLVQAGGSLRLSCAASGSIFEPNDMGWYRQAPGKEREFVAAISGSGGSTYYADSVKGRFTISRDNAKNTVYLQINSLKPEDTAVYYCANRGKRSYFRTFYYWGHGTQVTVSS”, for which the “polyreactivity (PSR sort gate)” value was “high polyreactivity”. As to “QVQLVESGGGLVQAGGSLRLSCAASGSIFEPYAMGWYRTAPGKERELVAAISSGGSTNYADSVKGRFTISRDNAKNTVYLQMNSLKPEVTAVYYCAAAYYTVGWLYYDYWYPFAYYYWGQGTQVTVSS”, the “polyreactivity (PSR sort gate)” value is reported as “low polyreactivity”. As to “QVQLVESGGGLVQAGGSLRLSCAASGSIFEQYTMGWYRQAPGKERELVAAISRRYGRTYYADSVKGRFTISRDNAKNTVYLQMNSLKPEETAVYYCNTVYYGNFYSTRYDYWGHGTQVTVSS”, the “polyreactivity (PSR sort gate)” value was “high polyreactivity”. Consider “QVQLVESGGGLVQAGGSLRLSCAASGSIFERYAMGWYRQAPGKERELVAGISTDGSTYADSVKGRFTISRDNAKNTVYLQMNSLKPEDTAVYYCNKRRGFSAWYDYWGQGTQVTVSS”, for which the “polyreactivity (PSR sort gate)” value was “low polyreactivity”.

Consider “QVQLVESGGGLVQAGGSLRLSCAASGSIFERYAMVWYRQAPGKERELVAAISWSGSSTYYADSVKGRFTISRDNAKNTVYLQMNSLKPEDTAVYYCNKVWIDTGMEYWGQGTQVTVSS”, for which the “polyreactivity (PSR sort gate)” value is “low polyreactivity”. In the case of “QVQLVESGGGLVQAGGSLRLSCAASGSIFEWYAMGWYRLAPGKERELVAVFSVRGGSTYYADSVKGRFTMSRENAKNTVYLQMNSLKPEDTAVYYCAADRVAPYYGHKRFYSGGQGTQVTVSS”, the “polyreactivity (PSR sort gate)” value is on record as “high polyreactivity”.

“QVQLVESGGGLVQAGGSLRLSCAASGSIFEWYAMGWYRQAPGKERELVAAINSGGSTYYADSVKGRFTISRDNAKNTVYLQMNSLKPEDTAVYYCNADTLLQDRLGDWYDYDYWGQGTQVTVSS”: the “polyreactivity (PSR sort gate)” value is on record as “low polyreactivity”. Take “QVQLVESGGGLVQAGGSLRLSCAASGSIFEYNAMGWYRQAPGKERELVAAITRGGNTYYADSVKGRFTISRDNAKNTVYLQMNSLKPEDTAVYYCAAVQWYGYPYYSWGQGTQVTVSS”: the “polyreactivity (PSR sort gate)” value is “low polyreactivity”. Regarding “QVQLVESGGGLVQAGGSLRLSCAASGSIFEYYAMGWYRQAPGKERELVAAISTGGSTYYADSVKGRFTISRDNAKNTVYLQMNSLKPEDTAVYYCAAEDYHPGADTVGTGYDYWGQGTQVTVSS”, the “polyreactivity (PSR sort gate)” value was “low polyreactivity”. Turning to “QVQLVESGGGLVQAGGSLRLSCAASGSIFEYYTMGWYRQAPGKERELVAGISWSGGSTYYADSVKGRFTISRDNAKNTVYLQMNSLKPEDTAVYYCAARSRSGRQEYYYWGQGTQVTVSS”, the “polyreactivity (PSR sort gate)” value is recorded as “high polyreactivity”.

With “QVQLVESGGGLVQAGGSLRLSCAASGSIFFAYAMGRYRQAPGKERELVAAITSGVSTNYADSVKGRFTISRDNAKNTVYLQMNILKPEDTAVYFCNADFDYGFDAGVAVQVVINVYWGQGTEVTVSS”, the “polyreactivity (PSR sort gate)” value was “low polyreactivity”. As for “QVQLVESGGGLVQAGGSLRLSCAASGSIFFAYSMGWYRQAPGKERELVAAISWSDGSTYYADSVKGRFTISRDNAKNTVYLQMNSLKPEDTAVYYCDKVYRSIGPNVSRYGLSYYYWGQCTQVTVSS”, the “polyreactivity (PSR sort gate)” value is listed as “low polyreactivity”. On to “QVQLVESGGGLVQAGGSLRLSCAASGSIFFDGNAMGWYRQAPGKERELVAAISVSGGSTYYADSVKGRFTISRDNAKNTVYLQMNSLKPEDTAVYYCAKYPSKSYVPGDYWGQGTQVTVSS”, for which the “polyreactivity (PSR sort gate)” value is on record as “low polyreactivity”.

Take “QVQLVESGGGLVQAGGSLRLSCAASGSIFFEYAMGWYRQAAGKERELVAAIDVGGGGTDYADSVKGRFTISRDNAKNTVYLQMNSLKPEDTAVYYCAAQDYYYFGIGASYDYWGQGTQVTVSS”: the “polyreactivity (PSR sort gate)” value is “low polyreactivity”. As for “QVQLVESGGGLVQAGGSLRLSCAASGSIFFFNAMGWYRQAPGKVREFVAAITSSSGRTYYADSVKGRFTISRDNAKNTVYLQMNSLKPEDTAVYYCAAQVPEDTETVDYWGQGTQVTVSS”, the “polyreactivity (PSR sort gate)” value was “low polyreactivity”. The result for “QVQLVESGGGLVQAGGSLRLSCAASGSIFFGNAMGWYRQAPGKERELVAAISTTGGSTYYADSVKGRFTISRDNEKNTVYLQMNSLKPEDTAVYYCNADRATWWEQWWYDYWGHGTQVTVSS” reads “low polyreactivity”.

On to “QVQLVESGGGLVQAGGSLRLSCAASGSIFFINAMGWYRQAPGKERELVAAISSGGTTYYADSVKGRFTISRDNAKNTVYLQMNSLKPEDTAVYYCNAAGFPYAHTFFKGLVEYDSWGQGTQVTVSS”, for which the “polyreactivity (PSR sort gate)” value was “low polyreactivity”.

For the sequence “QVQLVESGGGLVQAGGSLRLSCAASGSIFFLYAMGWYRQAPGKEWELVAAISGGGGSTYYADSVKGRFTISRDNAKNTVYFQMNCLKPEDTAVYNSAARTRVTKREYDYWGQGTQVTVSS”, the “polyreactivity (PSR sort gate)” value is reported as “high polyreactivity”. As for “QVQLVESGGGLVQAGGSLRLSCAASGSIFFLYARGWYRQAPGKERELVAAISRSGGNTYYADSVKGRFTISRDNAKNSVYLQMNSLKPEDTAVYYCAADGVHRGGRGGYWGQGTQVTVSS”, the “polyreactivity (PSR sort gate)” value is listed as “high polyreactivity”.

For the sequence “QVQLVESGGGLVQAGGSLRLSCAASGSIFFPNAMGWYRQAPGKERELVAAINWSGDSTYYADSVKGRFTISRDNAKNTVYLQMNSLKPEDTAVYYCNATYPWFDYDYWGQGTQVTVSS”, the “polyreactivity (PSR sort gate)” value was “low polyreactivity”. “QVQLVESGGGLVQAGGSLRLSCAASGSIFFPYAMGWSRQAPGKERELVAAITYGGGSTYYADSVKGRFTISRDNAKNTVYLQMNSLIPEDTAVYYCAAAVSYWRHGYQLSYDYWGQGTQVTVSS”: the “polyreactivity (PSR sort gate)” value is listed as “high polyreactivity”. Turning to “QVQLVESGGGLVQAGGSLRLSCAASGSIFFPYAMGWYRQAPGKERELVAAISWRGGITYYADSVKGRFTISRDNAKNTVYLQMNSLKPEDTAVYYCAADGPYTGDGALDYWGQGTQVTVSS”, the “polyreactivity (PSR sort gate)” value is “high polyreactivity”.

As to “QVQLVESGGGLVQAGGSLRLSCAASGSIFFPYAMGWYRQAPGKERELVAAISYSGTSTYYADSVKGRFTISRDNAKNTVYLQMNSLKPEDTAVYYCAAYSRYYASYDYWGQGTQVTVSS”, the “polyreactivity (PSR sort gate)” value is given as “high polyreactivity”. Under “QVQLVESGGGLVQAGGSLRLSCAASGSIFFQNAMGWYRQAPGKESEFVAAITWRGASTYYADSVKGRFTISRDNATNTVYLQMNSLKPEDTAVYYCAARQHYYYGWYYYWGQGTQVTVSS” stands “high polyreactivity”; under “QVQLVESGGGLVQAGGSLRLSCAASGSIFFRNAMGWYRQAPGKERELVAAITFSGGRTYYADSVKGRFTISRDTANNTVYLQMNSMKPEDTAVYYCAGRRSYTYARYDYWGQGTQVTVSS”, “high polyreactivity”; under “QVQLVESGGGLVQAGGSLRLSCAASGSIFFRYAMGWYRQAPGKERELVAAISSSGGSTYYADSVKGRFTISRDNAKNTVYLQMNSLKPEDTAVYYCAARYYRKYYYSPFDYWGQGTQVTVSS”, “high polyreactivity”. Under “QVQLVESGGGLVQAGGSLRLSCAASGSIFFRYATMGWYRHAPGKESELVAAISRSGGSTYYADSVKGRFTISRDNGKNTVYLQMNSLKPEDTAVYYCAKVSPSLRASGYDYWGQGTQLTVSS” stands “high polyreactivity”.

Turning to “QVQLVESGGGLVQAGGSLRLSCAASGSIFFSNAMGWYRQAPGKERELVAAITSTGGSTYYADSVKGRFTISRDNAKNTVDLQMNSLKPEDTAVYYCAAASRRGYYYWGQGTQVTVSS”, the “polyreactivity (PSR sort gate)” value is recorded as “high polyreactivity”. For “QVQLVESGGGLVQAGGSLRLSCAASGSIFFSNTMGWYRQAPGKERELVASIRETAGSTNYADSLKGRFTISRDYAKITVYLQMHSLKPEDTAVYYCAARYSPTRYHYGYWGQGTQVTVSS”, the “polyreactivity (PSR sort gate)” value is reported as “low polyreactivity”. Take “QVQLVESGGGLVQAGGSLRLSCAASGSIFFSNTMGWYRQAPGKERELVASITGDSSTNYADSVKGRFTISRDNAKNTVYLQMNSLKPEDTAVYYCNAGRVLRYVGHYSGDLEYWGQGTQVTVSS”: the “polyreactivity (PSR sort gate)” value was “low polyreactivity”. With “QVQLVESGGGLVQAGGSLRLSCAASGSIFFSYAMGWYRKAPGKERELVAAIDYSGGGTYYADSVKGRFTISRDNAKNTVYLQMNSLKPEDTAVYYCKSDTEVWADTFISYRALNYWGQGTQVTVSS”, the “polyreactivity (PSR sort gate)” value is given as “low polyreactivity”. Consider “QVQLVESGGGLVQAGGSLRLSCAASGSIFFTNAMGWYRQAPGKERELVASITSSGGSTYYADSVKGRFTISRDNAKNTVYLQMNSLKPEDTAVYYCARDRWPFWYSPSGVYRYYYWGQGTQVTVSS”, for which the “polyreactivity (PSR sort gate)” value is on record as “low polyreactivity”.
